US20210017293 (published 2021)
Changes are numbered by the printed parent chain. Names may count otherwise.

T1: human TNFR1 (human, UniProt P19438)
T1 chain: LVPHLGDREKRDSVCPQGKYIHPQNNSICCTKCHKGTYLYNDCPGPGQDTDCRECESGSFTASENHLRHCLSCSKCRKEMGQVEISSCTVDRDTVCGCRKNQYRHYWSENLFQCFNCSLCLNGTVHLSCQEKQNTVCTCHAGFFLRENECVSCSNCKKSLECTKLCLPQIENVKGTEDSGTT

B1: DOM1H-131-206 C-terminal ASTKGP (antibody, V domains shown)
VH: EVQLLESGGGLVQPGGSLRLSCAASGFTFAHETMVWVRQAPGKGLEWVSHIPPDGQDPFYADSVKGRFTISRDNSKNTLYLQMNSLRAEDTAVYHCALLPKRGPWFDYWGQGTLVTVSS
B2: DOM1H-131-206 G44E (antibody, V domains shown)
VH: B1 VH with G44E
B3: DOM1H-131-206 Q13A (antibody, V domains shown)
VH: B1 VH with Q13A
B4: DOM1H-131-206 C-terminal A (antibody, V domains shown)
VH: B1 VH
B5: DOM1H-131-206 K43A (antibody, V domains shown)
VH: B1 VH with K43A
B6: DOM1H-131-206 P14A (antibody, V domains shown)
VH: B1 VH with P14A
B7: DOM1H-131-206 C-terminal ASTK (antibody, V domains shown)
VH: B1 VH
B8: DOM1H-131-206 P14A, G44E (antibody, V domains shown)
VH: B1 VH with P14A, G44E
B9: DOM1H-131-206 P41A (antibody, V domains shown)
VH: B1 VH with P41A
B10: DOM1H-131-206 C-terminal ASTKG (antibody, V domains shown)
VH: B1 VH
B11: DOM1H-131-206 (antibody, V domains shown)
VH: B1 VH
B12: DOM1H-131-206 P14A + C-terminal ASTKG (antibody, V domains shown)
VH: B1 VH with P14A
B13: DOM1H-131-206 P14A + C-terminal A (antibody, V domains shown)
VH: B1 VH with P14A
B14: DOM1H-131-206 C-terminal S deletion (antibody, V domains shown)
VH: EVQLLESGGGLVQPGGSLRLSCAASGFTFAHETMVWVRQAPGKGLEWVSHIPPDGQDPFYADSVKGRFTISRDNSKNTLYLQMNSLRAEDTAVYHCALLPKRGPWFDYWGQGTLVTVS
B15: DOM1H-131-206 P14Q (antibody, V domains shown)
VH: B1 VH with P14Q
B16: DOM1H-131-206 P14K + C-terminal ASTKG (antibody, V domains shown)
VH: B1 VH with P14K
B17: DOM1H-131-206 P14T (antibody, V domains shown)
VH: B1 VH with P14T
B18: DOM1H-131-206 P14K + C-terminal A (antibody, V domains shown)
VH: B1 VH with P14K
B19: DOM1H-131-206 P14E (antibody, V domains shown)
VH: B1 VH with P14E
B20: DOM1H-131-206 P14Q + C-terminal ASTKG (antibody, V domains shown)
VH: B1 VH with P14Q
B21: DOM1H-131-206 P14T + C-terminal ASTKG (antibody, V domains shown)
VH: B1 VH with P14T
B22: DOM1H-131-206 P14K (antibody, V domains shown)
VH: B1 VH with P14K
B23: DOM1H-131-206 L11A (antibody, V domains shown)
VH: B1 VH with L11A
B24: DOM1H-131-206 C-terminal AST (antibody, V domains shown)
VH: B1 VH
B25: DOM1H-131-206 P14Q + C-terminal A (antibody, V domains shown)
VH: B1 VH with P14Q
B26: DOM1H-131-206 P14T + C-terminal A (antibody, V domains shown)
VH: B1 VH with P14T
B27: VEGF165 (protein)
chain: APMAEGGGQNHHEVVKFMDVYQRSYCHPIETLVDIFQEYPDEIEYIFKPSCVPLMRCGGCCNDEGLECVPTEESNITMQIMRIKPHQGQHIGEMSFLQHNKCECRPKKDRARQENPCGPCSERRKHLFVQDPQTCKCSCKNTDSRCKARQLELNERTCRCDKPRR

Molecular target: T1, human TNFR1
Assay: ELISA

EC50 [pM]	Binder
11900	B1
860	B2
1750	B3
1210	B4
670	B5
1220	B6
1590	B7
2030	B8
590	B9
1110	B10
1990	B11

Molecular target: T1, human TNFR1
Assay: ELISA
Remark: another data set of the same source

EC50 [pM]	Binder
4640	B12
2710	B4
2220	B13
1900	B10
1970	B11

Molecular target: T1, human TNFR1
Assay: ELISA
Remark: another data set of the same source

EC50 [pM]	Binder
500	B14
1470	B12
910	B15
480	B16
770	B17
460	B18
640	B19
570	B13
1100	B20
720	B21
720	B22
510	B23
1990	B24
670	B11
460	B25
660	B26

Molecular target: T1, human TNFR1
Assay: SPR

Kd [pM]	Binder
25.3	B4
14.3	B11

Each binder was assayed against DMS30038-R (DMS30051) (human) (assay: SPR 37C).

Kd [pM]	Binder
0.00431	B27
